# Measurements: US20160040149A1, “Compositions Having Dicamba Decarboxylase Activity and Methods of Use” (priority 2013, published 2016)
# B1: 56 (protein)
# chain: MAKIICLEEHYLDSELGRACMPVALEQAPFLGDWGKTVADGHNPDRSRPQIEKNALINAKGADLGSRRLRDMDEAGITLQILSVGGFPQLAPEDEAVTLNTAANDRLAEAVRNHPDRFAAFATLPWAQPKDAENELVRAVEKLGFKGALLNGRPSSCFLDHPDYDSLLSRFNKLNVPLYLHPGLPLKSVQQAYFTGFSAEVNARLSMFGWGWHHEAGIHLLRLMLSGAFDKYPNMQVISGHWGEMLPFWLQRLDDSLPLAATGLSRTLTRTFQEHVYVTPSGMLTLPHFKFIYELMGAERILFSVDYPYQTLDGVKTFIDSLPVNKAEKEAIAFRNAERLLGITA
# modifications: Enterobacter aerogenes
# B2: 59 (protein)
# chain: MAPSVIDAHAHFLPGSLVTALRSRSDAPDIRTDSNGGESFGIYRTRMPYGRTYDALDVRLARMDELGVDRQILSLPGLFGIDSRPVSQALPLVRAFNDGVADLVRKHPDRFSGIAALPLADLDAAQEEYRRARGDLGLSGLILPGDTFVSVAAAERVRPLFELAATIGGLIFVHPGPLPDETGSAVDAPAPHTDSVVHRRVTVDIQNRMTEVMVTLALTDFLAPYPSVPVQVANLGGSLPFVIERMDHVYALRNPEAPPPSLSLRSLYVDAASLGPRAIALAAEVYGADRVLFGSDYPIFDDGRCLDAVRQTRLSPDARALIAGGNAARMLTQT
# modifications: alpha proteobacterium
# B3: 58 (protein)
# chain: MARVIALEEHYATTEFLRGPGTWLASRPGIVEPAGDLGDGRIAAMDQAGVDLAVLSLAAPGVEQLDPDDAVRLARDCNDQLAAAVRRYPDRLAGFATVPTSAPDRAADELERAVRGLGFPGAVINGHSRGRYLDDPFFEPVLARAAELQAPIYLHPTIPPAGVIESSYAGFAEPVTFALATVGWGWHINTATHALRMILGGVFDRHPSLQMIIGHMGEATSFMLPRFDATLKPELTGLNHPVSSYLRENFHYTFANFNDHATYANLVAQVGIERVAFSADYPFGSMVDARAFLDGLPLSDDERAAISHRNAEKLLGL
# modifications: Mycobacterium colombiense
# B4: 55 (protein, listed as Serratia sp.)
# chain: MAKIICLEEHTLDKALVMASMPAALEQAPFLSDWGKTVTDGNLPDRSRPQIEKNDLINIKGADIGRGRLDDMDVAGITMQVLSVGGFPHLISAAEGVDLNRAANDRLADAVNAHPDRFAAFATLPWAQPDSAEKELERAVKELGFKGALLNGRPSTHFLDHPDYDGLLARFNALGVPLYLHPGLPVRSVQQAYYGGFSDEVTARLSMFGWGWHHEAGIHLLRLILSGAFDKYPNLQVISGHWGEMLPFWLQRLDDSLPQAATGLRRTIAQTFKEQVYVTPSGMLTLPHFQFIYALLGAERIIFSVDYPYQTLDGVKAFIQSLPVPEEAKEAIAFRNAERLLGLTS
# B5: 2 (protein, listed as Serratia sp.)
# chain: B4 chain
# B6: 70 (protein, listed as Alicyclobacillus acidocaldarius)
# chain: MAIEPNRAADVHTHFLPTEVLEFLKREPRIQVDLERRAPDKEPFLTVEGRWSFELKRMFVDFEAFASAYRQAGIGLALVSPLPQLFVYHLPAEMGAQVAEVYNDALRDVLAPHRERFRPLATLPLADPTAAARELERRMDEGFVGAIVGPGVGEALIGDEAFWPLWEVADARRAVLFLHPLLHADPRAARLMLPNLVGVPWETTLAAAHLVLSGLLDRYPGARVLLAHGGGFLPYQIGRIEQGYDVWPQVRGRLQDRPTAYLRRMFYDNVLWSDAALRCLIDVVGADRVLAGSDFPFDLSAWPPRPGADVSVLAGGSGREGRLS
# B7: 69 (protein, listed as Microbacterium testaceum)
# chain: MATSTEGQDVTDVHAHLLMPGLHAEVERRVPDEVQAAADLELRRNGLASLQASGRMIGERFPRLTDVRARLAAMDEQGVDRQWVSPSPNHFYPWANEGLATWASGEANRLIAEHVALAPDRLVGLGVVPLQHPHLVVDALDDAVLGRGLAGVEISSFAGDVELSDERLESFWARAAELRAVVFLHPFGCSLDERLDRFYLSNTVGQPTENAVALSHLIFSGVLDRHPGLRLIAAHGGGYLPTAIGRSDRAWRVRPEARGCAHAPSTYLSKLWFDTVVHDERALRWLVEAAGADRVLLGSDFPFDMGLDDPVAFVRGAGLQDAEVSGILGGNAAELLRTRVHA
# B8: 54 (protein, listed as Streptomyces sp.)
# chain: MAKIIALEEHFSDPAVAKAGAARAQALSPGFAASYSPASGLPYSPSPEVLENLAEKRLADMDAGGITMQVLSGLGAQTVPADVAPALVAGSNDKAAAAVRAHPDRFAAFAALPTAAPEAAVAELDRSINELGFVGTLIMGRTEGEFLDAPRFEPILARAAALKVPVFLHPGVPPREITDSNYAAGLPTGIGTRLQTAAWGWHQETAVHFLHLVHSGVLDRYPGLQFILGHWGEMIPFYLDRVDEALPQRATGLDRSFHEYFRENVYLAPSGMWSQAQLRFCLETVPLERIVFAVDYPFIGNEGAVPFLEKAELPEADKRKIAHENAERLLGL
# B9: 68 (protein, listed as Hoeflea phototrophica)
# chain: MAIIDAHTHTLCPAVNEKVAGTIKPDSVPYQRDMSPESKEQDHTQFPELKIMFNQVERRLADMARMGIDRQVIAPAPGQQHYWAEPKLLAEISALQNDHVAELVARAPDRFAGIGTLPMTDPDAAVAEITRATRELGLRVFQIDSRVMERELSDASLDPIYAALEAAGAGLMIHPLGFSNGERLTPFFMVNSVAQPLEELLAFNHLVFGGVLDRFPKLKVYIAHGGGFAPFYIGRFDHAWKVRPEVNRLTPSAPSTYLRRIYFDTCVYRTDHIETLVRTVGADRVMLGSDYPFDMGDTDPLGLLNACQGLSDDEKATISSKVAIDFFGLET
# B10: 60 (protein, listed as Catenulispora acidiphila)
# chain: MARGFVRTAVVPGFWDAGWRGAGQPGGMRVDVHAHLFPAAYLDLLDDFRQDGGVGTREVRALGGGDGERELRLRLAAMDAVGVDVQLLSTCPQGPYTGDPTAAVEAARCANVALAQTVAQYPERLRALAALPLPHILASVDELNRAMEQDGMLGAAVGTSILGRPLSHPDFEPLFAALNRRKGVLFVHPIGESAGSPLMQASKLDRVIGYAAEVSTAILQLFQAGLTVKYPDIRIIAPHMGGYLPFLIQRLDRHRDWYLPKDAPSAGQLMRGIAYDTANPLPAALRLTAEVVGPERLLLGTDYPFEQGPSLRDHIEYILAAGLPEAQAKMIVDVNAADFLDMRSGAEQPPV
# B11: 57 (protein)
# chain: MAKLICVEEHVLDPAVGAATQSLVRAEAPYLPDWGSRVLDGRHVADRSRPHVIAPSESARKALEMGEPRLADMDAASIDMQVLSYGGFPQLLPAAQAIDLNRAANDKLALAAQAHPARFAGFATLPWQAPEAAARELERAVKQLGLKGALINGRPGDTFLDDARYAPILAAFDELKVPLYVHPGLPLPAVQAPYYGGFERELSARLAMFAWGWHNEAGIQVVRMLLAGVFDRHPRLQLISGHWGEMVPFFLQRLEDSIPQEASGLQRPIVQTYREHVYISPSGMFTLPHFQFIHALMGAQRILYSIDYPYQSLDGARAFIERLPISDTDKALIAHRNAERLLHL
# modifications: Collimonas fungivorans
# B12: 71 (protein, listed as Burkholderia dolosa)
# chain: MARAGHRAARTRQSRPGDRTMTCSCCMSAGRRRVLGAFAALAGAPKGPRAASAAQPAAASKPTRGDATARNRHSRALLPGKASASWSATKASGSGGAFAWDDTTFTFRTPAGGLGPLPMKFIDVDARLRDMDASGVDVQALSLSVPMAYWGDRPFNAKLARAWNTAASRVHVRAPDRFVVLATLPMLDATDAIDELERASELPGVRGVYMGTNIDNRDLDDPRFAPVFARIEQLGLPVFLHPQQTVGGARLGDFYLSNLLGNPFDTAIAASHLILGGVLDRHPALHFTLPHAGGALPILVGRLDAGWTVRAETRRLAHQPSGYLRRFSYDTVSHSGPVLNFLIENVGIDRLVLGSDYCFDMGYEQPVRFLDRLDLTPDERAMVIGGNAGRLLRI
# B13: 62 (protein)
# chain: MAVGGKNFRDVTDQVWCPKKRIEDMDREGVDIQVLSPIPVTFSYWAKPEEAESMARIQNDFIAETVLAYPDRFVGLGTVPMQDGETAIREMERCITELNLHGIEIGTNVNGKNLDDPSFIEFFRMAEKWQVPIFIHPWETLGRDRMPHHNFMYTVGMPSETALAAATLIWSGIMEKFPRLKVCFAHGGGSFPYILPRLDQGWKVWPHLRLTTHPPSYYAKKFYFDSLNYDPINLKYMIERFGHEKIFMGSDYPFLLREVDPGKVIDETASLSEEQKAAMLGGNAAEFLNIDIKKRGVAYAESTNT
# modifications: Bacillus thuringiensis serovar pulsiensis
# B14: 64 (protein, listed as Achromobacter piechaudii)
# chain: MAIQKIDMHAHFFPPITRQEAAALDPVNAPWLRPDADGATGQIMAGEREFRPVDATLWDPALRIEQMDRHGVDVQILCATPIMFGYTYPARPAADWAARMNDLALEHCAYAPSRLKALAQVPLQDLELACQEASRARAAGHLGVQIGNHVGPRDLDDETLVQFLIHCANNDIPVLVHPWDMMTDGRMKKWMLPWLVSMPAETQLGILSLILSGAFERIPRSLKLCFAHGGGSFAYLLGRVDNAWRHRDIIRQDCPQLPSSYTDRFYTDSAVFDPRSLRLLIDVMGEDRVLLGSDYPYPLGEQEVGRLVAHAELVPEVQQKILFRNTMTFFGLQPGLQPGLQS
# B15: 61 (protein, listed as Gordonia amarae)
# chain: MATGAGSGVPSPADRVIVRSPGVIDVHAHAVLPMSLGCAGAAGPEIGYREDGSPFFRVGEYVLNGVRYEGSAFMDPEVRVAAMDAAGIGLQMISPNPITYFTRLDARSATDYARAHNDAIAEAAGRHPGRLVGAAQLPMQDVPAAIAELERSVRELGLVAAYIDTDIGDRTLDAPELDDFYSAAVELDVPVFIHPSPVGQEGPPDDTRLRRFDLDLLLGFSYDETLAVAALVFGGVLERHPALDVCLSHGGGTLAFVAGRFARAVAKPRAWVPEFLVENGIESYLRRLWLDTHVHSAGSLRLLIDTVGTDRLVFGTNFAGWDADGATEVDALGDLRETTTANAAHLLRLGRA
# Experiment: Saturation mutagenesis of SEQ ID NO:109: dicamba decarboxylation activity of point mutants (CO2 released), fold of backbone (Tables 7, 8, Megatable 1)
# Conditions: decarboxylation activity (CO2 released) of point mutant vs unmutated backbone protein; backbone SEQ ID NO: 109
row,Molecule,Fold Activity [fold]
1,B1,1.3
2,B2,0.9
3,B3,1.5
4,B4,1.5
5,B5,1.1
6,B6,1.7
7,B7,1.3
8,B8,1.4
9,B9,1.3
10,B10,1.6
11,B11,2
12,B12,1.5
13,B13,1
14,B14,1.8
15,B15,2.4
